Source: patent US20240059799A1 (Pfizer, published 2024)
Residue numbers refer to the chain shown, from its start.

Legend:
[1] = biological target: T1, recombinant human TL1A (human, UniProt O95150 71-251); test: cell-based or functional assay
T1 chain: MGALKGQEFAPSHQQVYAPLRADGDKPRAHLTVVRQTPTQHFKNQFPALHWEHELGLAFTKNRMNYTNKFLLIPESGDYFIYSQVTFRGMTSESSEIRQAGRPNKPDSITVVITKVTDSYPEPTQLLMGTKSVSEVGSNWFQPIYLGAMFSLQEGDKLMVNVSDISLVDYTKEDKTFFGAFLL

[2] = biological target: T2, human IL-23 (human, UniProt P29460 23-328; Q9NPF7 20-189); test: cell-based or functional assay
T2 sequence 1: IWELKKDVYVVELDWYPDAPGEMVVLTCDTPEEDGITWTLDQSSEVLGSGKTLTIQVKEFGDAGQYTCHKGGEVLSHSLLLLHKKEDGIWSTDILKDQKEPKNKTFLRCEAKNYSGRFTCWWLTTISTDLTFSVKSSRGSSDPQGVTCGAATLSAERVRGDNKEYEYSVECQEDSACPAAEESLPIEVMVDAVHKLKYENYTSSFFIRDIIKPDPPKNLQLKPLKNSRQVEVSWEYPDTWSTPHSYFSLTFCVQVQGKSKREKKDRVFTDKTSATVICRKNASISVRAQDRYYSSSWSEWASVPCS
T2 sequence 2: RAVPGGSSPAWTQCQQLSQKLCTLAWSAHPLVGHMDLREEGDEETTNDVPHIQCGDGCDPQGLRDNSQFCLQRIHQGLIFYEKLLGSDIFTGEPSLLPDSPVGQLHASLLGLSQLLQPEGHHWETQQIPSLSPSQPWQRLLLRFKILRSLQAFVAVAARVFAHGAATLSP

[3] = biological target: T3, human IL-12 (human, UniProt P29460 23-328; P29459 23-219); test: cell-based or functional assay
T3 sequence 1: T2 sequence 1
T3 sequence 2: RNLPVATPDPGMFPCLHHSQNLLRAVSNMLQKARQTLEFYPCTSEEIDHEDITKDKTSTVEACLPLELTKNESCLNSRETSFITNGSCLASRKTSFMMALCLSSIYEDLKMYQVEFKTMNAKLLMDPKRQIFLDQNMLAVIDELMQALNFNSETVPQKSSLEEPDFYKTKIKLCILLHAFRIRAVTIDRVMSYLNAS

[4] = biological target: T4, human serum albumin (human, UniProt P02768 25-609); test: direct binding ELISA on plate-coated HSA (1 ug/mL), anti-human IgG-Fc HRP, OD450
T4 construct: also called HSA
Method: (§1) For the direct binding ELISA method to HSA or BSA, 96-well high binding plates (Corning, product number 3590) were coated with 1 μg/mL recombinant HSA or BSA in 100 μL/well in PBS overnight at 4° C. Plates were then blocked in PBS+0.02% casein solution and washed with PBS+0.05% Tween-20 following standard ELISA protocol. […] Plates were washed with PBS+0.05% Tween-20 following standard ELISA protocol, and goat anti-human IgG-Fc HRP conjugated secondary antibody (Pierce, #31413) diluted to 1:10,000 in assay buffer was added to plates and incubated for 1 hour at room temperature. Next, the plates were washed with PBS+0.05% Tween-20 following standard ELISA protocol, and then TMB substrate (BioFX Laboratories, catalog number TMBW-0100-01) was added to plates.
(§2) Reactions were stopped after approximately 5 minutes by adding 0.18 M ortho-phosphoric acid to each well and absorbance was read at 450 nm. […] For this method, samples diluted to 0.3 mg/mL were dispensed into the sample tray of a MicroCal VP-Capillary DSC with Autosampler (Malvern Instruments, Inc.), equilibrated for 5 minutes at 10° C. and then scanned up to 110° C. at a rate of 100° C. per/hour. A filtering period of 16 seconds was selected. Raw data was baseline corrected and the protein concentration was normalized. Origin Software 7.0 (Origin Lab Corporation, Northampton, MA) was used to fit the data to an MN2-State Model with an appropriate number of transitions.

[5] = biological target: T5, recombinant human TL1A (human, UniProt O95150 71-251); test: cell-based or functional assay
T5 chain: T1 chain

[6] = biological target: T6, bovine serum albumin (bovine, UniProt P02769 25-607); test: direct binding ELISA on plate-coated BSA (1 ug/mL), anti-human IgG-Fc HRP, OD450
T6 construct: also called BSA
T6 sequence (P02769 25-607 limits assumed): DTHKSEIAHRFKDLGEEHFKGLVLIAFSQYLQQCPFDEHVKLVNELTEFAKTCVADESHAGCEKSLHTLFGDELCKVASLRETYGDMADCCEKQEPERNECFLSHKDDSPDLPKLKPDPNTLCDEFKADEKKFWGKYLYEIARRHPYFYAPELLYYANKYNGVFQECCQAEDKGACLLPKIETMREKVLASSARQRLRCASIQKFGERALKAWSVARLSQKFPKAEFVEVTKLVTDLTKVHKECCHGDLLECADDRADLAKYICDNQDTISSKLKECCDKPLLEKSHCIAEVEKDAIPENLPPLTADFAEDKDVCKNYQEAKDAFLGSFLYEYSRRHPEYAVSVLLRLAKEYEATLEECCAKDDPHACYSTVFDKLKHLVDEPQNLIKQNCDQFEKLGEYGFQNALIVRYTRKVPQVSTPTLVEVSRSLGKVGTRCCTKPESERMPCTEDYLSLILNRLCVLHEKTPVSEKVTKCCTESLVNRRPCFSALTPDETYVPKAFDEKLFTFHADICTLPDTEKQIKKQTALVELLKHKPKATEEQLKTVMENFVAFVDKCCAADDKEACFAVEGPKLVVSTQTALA
Method: as §1, §2

[7] = biological target: T5, recombinant human TL1A; test: SPR, recombinant human TL1A
[8] = biological target: T7, full-length human TL1A on CHO-K1 cells (human, UniProt O95150 1-251); test: flow cytometry on CHO-K1 cells stably expressing full-length human TL1A, PE anti-human IgG, median fluorescent intensity
T7 construct: whole, on cells; also called cells over-expressing human TL1A
T7 sequence (looked up): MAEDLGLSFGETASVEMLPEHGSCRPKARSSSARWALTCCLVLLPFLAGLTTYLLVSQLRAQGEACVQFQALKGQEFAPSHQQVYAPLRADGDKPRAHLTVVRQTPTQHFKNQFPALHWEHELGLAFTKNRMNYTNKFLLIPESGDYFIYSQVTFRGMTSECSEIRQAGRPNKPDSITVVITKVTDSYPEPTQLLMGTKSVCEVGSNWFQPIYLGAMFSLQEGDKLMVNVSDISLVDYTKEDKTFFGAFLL
Method: A cell binding assay was performed to examine if the panel of [xTL1A] bivalent antibody variants could bind to human TL1A over-expressed on the cell surface. […] [xTL1A] bivalent antibody variants were incubated with cells on ice for 30-60 minutes at a concentration of either 1 μg/mL or 20 μg/mL. Cells were pelleted by centrifugation at 1500 RPM for 5 minutes at 4° C. and supernatant was discarded by aspiration. The cells were washed three times with DPBS with 4% FBS buffer as described. Cells were resuspended in 100 μL of PE-anti-human IgG (Life technologies Catalog number H10104) diluted 1:500 in DPBS with 4% FBS buffer and incubated on ice for 15 minutes. Cells were washed three times as described and resuspended in 200 μL of DPBS with 4% FBS buffer, then run on a flow cytometry instrument.

B1: p40TL1A-0001 bispecific antibody (bispecific antibody)
heavy 1: EVQLVQSGAEVKKPGESLKISCKGSGYSFTTYWLGWVRQMPGKGLDWIGIMSPVDSDIRYSPSFQGQVTMSVDKSITTAYLQWNSLKASDTAMYYCARRRPGQGYFDFWGQGTLVTVSSASTKGPSVFPLAPSSKSTSGGTAALGCLVKDYFPEPVTVSWNSGALTSGVHTFPAVLQSSGLYSLSSVVTVPSSSLGTQTYICNVNHKPSNTKVDKKVEPKSCRKTHTCPRCPAPEAAGAPSVFLFPPKPKDTLMISRTPEVTCVVVDVSHEDPEVKFNWYVDGVEVHNAKTKPREEQYNSTYRVVSVLTVLHQDWLNGKEYKCKVSNKALPAPIEKTISKAKGQPREPQVYTLPPSREEMTKNQVSLTCLVKGFYPSDIAVEWESNGQPENNYKTTPPVLDSDGSFFLYSRLTVDKSRWQQGNVFSCSVLHEALHSHYTQKSLSLSPGK
light 1: not shown
heavy 2: QVQLVQSGAEVKKPGASVKVSCKASGYDYTYYGISWVRQAPGQGLEWMGWISTYNTGTHYAPSLQGRVTMTTDTSTSTAYMELRSLRSDDTAVYYCARESYYGSGAFRGGMDVWGQGTTVTVSSASTKGPSVFPLAPSSKSTSGGTAALGCLVKDYFPEPVTVSWNSGALTSGVHTFPAVLQSSGLYSLSSVVTVPSSSLGTQTYICNVNHKPSNTKVDKKVEPKSCEKTHTCPECPAPEAAGAPSVFLFPPKPKDTLMISRTPEVTCVVVDVSHEDPEVKFNWYVDGVEVHNAKTKPREEQYNSTYRVVSVLTVLHQDWLNGKEYKCKVSNKALPAPIEKTISKAKGQPREPQVYTLPPSREEMTKNQVSLTCEVKGFYPSDIAVEWESNGQPENNYKTTPPVLDSDGSFFLYSKLTVDKSRWQQGNVFSCSVLHEALHSHYTQKSLSLSPGK
light 2: not shown
In the case of B1, the “NF-κB assay IC50 (TF-1 reporter cells)” value [1] is reported as 0.0911 nM, the “NF-κB assay, Bioactivity relative to TL1A-0372” value [1] is reported as 0.9 fold and the “KIT-225 STAT3 assay IL-23, Bioactivity relative to p40-0003” value [2] is reported as 2.4 fold. For the same binder, the “KIT-225 STAT3 assay IL-23 IC50” value [2] was 3.9 nM, the “KIT-225 STAT4 assay IL-12, Bioactivity relative to p40-0003” value [3] was 1.7 fold and the “KIT-225 STAT4 assay IL-12 IC50” value [3] was 5.7 nM.

B2: p40TL1A-0024 bispecific antibody (bispecific antibody, human IgG1, kappa)
heavy 1: B1 heavy 1 with R223D, R230P
light 1: not shown
heavy 2: B1 heavy 2 with E228D, E235P
light 2: not shown
With B2 the “NF-κB assay IC50 (TF-1 reporter cells)” value [1] was 0.106 nM, the “NF-κB assay, Bioactivity relative to TL1A-0372” value [1] was 1 fold and the “KIT-225 STAT3 assay IL-23, Bioactivity relative to p40-0003” value [2] was 2.2 fold. The “KIT-225 STAT3 assay IL-23 IC50” value [2] was 3.6 nM, the “KIT-225 STAT4 assay IL-12, Bioactivity relative to p40-0003” value [3] was 1.3 fold and the “KIT-225 STAT4 assay IL-12 IC50” value [3] was 4.3 nM.

B3: p40TL1A-0032 bispecific antibody (bispecific antibody)
heavy 1: B1 heavy 1 with L130K, V187S, R223D, R230P, Y351C, T368W, R411K
light 1: DIQMTQSPSSLSASVGDRVTITCRASQGISSWLAWYQQKPEKAPKSLIYAASSLQSGVPSRFSGSGSGTDFTLTISSLQPEDFATYYCQQYNIYPYTFGQGTKLEIKRTVAAPSVFIFPPSDEQLKSGTASVSCLLNNFYPREAKVQWKVDNALQSGNSQESVTEQDSKDSTYSLDSTLTLSKADYEKHKVYACEVTHQGLSSPVTKSFNRGEC
heavy 2: B1 heavy 2 with L135E, S190G, E228D, E235P, S361C, T373S, E375A, Y414V
light 2: not shown
In the case of B3, the “NF-κB assay IC50 (TF-1 reporter cells)” value [1] is reported as 0.131 nM, the “NF-κB assay, Bioactivity relative to TL1A-0372” value [1] is reported as 1.3 fold and the “KIT-225 STAT3 assay IL-23, Bioactivity relative to p40-0003” value [2] is reported as 2.3 fold. The “KIT-225 STAT3 assay IL-23 IC50” value [2] was 3.8 nM, the “KIT-225 STAT4 assay IL-12, Bioactivity relative to p40-0003” value [3] was 1.4 fold and the “KIT-225 STAT4 assay IL-12 IC50” value [3] was 4.6 nM.

B4: p40TL1A-0021 bispecific antibody (bispecific antibody)
heavy 1: B1 heavy 1 with R230P
light 1: not shown
heavy 2: B1 heavy 2 with E235P
light 2: not shown
For B4, the “NF-κB assay IC50 (TF-1 reporter cells)” value [1] was 0.0509 nM, the “NF-κB assay, Bioactivity relative to TL1A-0372” value [1] was 0.5 fold and the “KIT-225 STAT3 assay IL-23, Bioactivity relative to p40-0003” value [2] was 1.4 fold. For the same binder, the “KIT-225 STAT3 assay IL-23 IC50” value [2] was 3.4 nM, the “KIT-225 STAT4 assay IL-12, Bioactivity relative to p40-0003” value [3] was 0.9 fold and the “KIT-225 STAT4 assay IL-12 IC50” value [3] was 3 nM.

B5: p40TL1A-0018 bispecific antibody (bispecific antibody, human IgG1, kappa)
heavy 1: B1 heavy 1 with R223D, R230P, T368W, R411K
light 1: not shown
heavy 2: B1 heavy 2 with E228D, E235P, T373S, E375A, Y414V
light 2: not shown
With B5 the “NF-κB assay IC50 (TF-1 reporter cells)” value [1] was 0.105 nM, the “NF-κB assay, Bioactivity relative to TL1A-0372” value [1] was 1 fold and the “KIT-225 STAT3 assay IL-23, Bioactivity relative to p40-0003” value [2] was 2.1 fold. The “KIT-225 STAT3 assay IL-23 IC50” value [2] was 3.4 nM, the “KIT-225 STAT4 assay IL-12, Bioactivity relative to p40-0003” value [3] was 2 fold and the “KIT-225 STAT4 assay IL-12 IC50” value [3] was 6.6 nM.

B6: TL1A-0368 (bispecific antibody)
heavy 1: B1 heavy 2 with E228D, E235P, Y356C, T373W, E375L
heavy 2: QVQLVQSGAEVKKPGASVKVSCKASGYTFTSYGISWVRQAPGQGLEWMGWISAYNGNTNYAQKLQGRVTMTTDTSTSTAYMELRSLRSDDTAVYYCARESYYGSEAFRAGMDVWGQGTTVTVSS
light: not shown
notes: not shown: human IgG1 constant region with effector-minimizing, KiH and LS mutations
For B6, the binding result [4] was “no binding (tested: 1e-6 M)”, the “NFκB Bioassay IC50” value [5] was 1.56 nM and the binding result [6] was “no binding (tested: 1e-6 M)”. For the same binder, the Kd [7] was 0.242 nM, the koff [7] was 4.61e-05 s⁻¹ and the kon [7] was 191000 M⁻¹ s⁻¹.

B7: [xTL1A]-0360 (antibody, human IgG1, kappa, V domains shown)
VH: not shown
VL: DIQMTQSPSSLSASVGDRVTITCRASQSVSSYLAWYQQKPGKAPKLLIYDASNRATGVPSRFSGSGSGTDFTLTISSLQPEDFATYYCQQRSNWPWTFGQGTKVEIKR
notes: bivalent disabled antibody, IgG1 effector-function-minimized/kappa
B7: no binding (tested: 20 ug/mL) [8].
